# Assay: soluble on expression in E. coli; label from the status in PepcDB or PDB records
row,Sequence,soluble on expression in E. coli
1,MGSDKIHHHHHHMAERVLVPTQIGRGDRYYTYTELLAISRRFKQNPNELMVTWILRVYDQGGPALSLNSGELGLLGDLTHDAIFNYRCKALRGAGCQTLLSWLLQAWRQRWESSLHFEATELPFRPWTTMEEGIQLVRELGMIEWIYLDPEGPVDLAPEDVAFTQGLQRRLLTAAPSELRLSLVSLLVRGMTVLEAVMEIQTIADVGLLWRQSHPGRTKLMLGPNPTRKDLLGWLLSHGVPREQVDRQPTKVLLELYIKEAKRSRGHPNYGLNEEQPPPPPYSDQACGEEQPVRHD,not soluble
2,MAHHHHHHMPPKGQRSLNIAQPLSSSRAQSANAILRSAASAMATSGPAASKSSPRTSCFPRAFMSTGNARNEMEAYYEQLLSQDRVDGVDAFGKNGIHLLCKGLGIKPESFEMYTLIWKMGVTRGCCIPRADWLKTIYTYKIEQPMDLKLVLVEWVKESRGDSFTEFYNDLYDYIRGEEARLMPYGTAVEAWAVLFQNEPRIIPWIKWYSDIYRREVTRDVWRQIGIFLSAVPNIEAYNVEDRWSCAIDSYVEWCKVSG,not soluble
3,MPAHQLSDDRAIQGTFMRKRRDSLASVVARDLAGRIERGDYAVGDKIPIEAQLCEMYNVSRTVVREAIATLRSEGLVTSRHGVGVFVEERGNPALSITREAAGELSEVLELLELRLGVEVEAAGLAARRATAEDLRQIREVLEKTDDLEAFAEHRRELDYAFHLAIARASGNSWMPKFMDFIGPVIIPRSQLLHDPQSGITGDYLRQMVEEHRQIVEAIAAGEAAAAQEAMRMHLSTSLERYRRRLTDA,not soluble
4,SNTQAERSIIGMIDMFHKYTRRDDKIDKPSLLTMMKENFPNFLSACDKKGTNYLADVFEKKDKNEDKKIDFSEFLSLLGDIATDYHKQSHGAAPCSGGSQ,soluble
5,MRIRIRVLSHFSSALGFDESSFSIGEGITFAELRSKLIEQFSAFVRPIEIGMYVNMKPVPDDYTMMDGDIVYVFPRSSTP,not soluble
6,MKQLSVSLAILCAVATSEAFAADELQQRAQGLFKPVPAKAPTLKGNPASPVKVELGKMLYFDPRLSASHLISCNTCHNVGLGGGDLQATSTGHGWQKGPRNAPTVLNSVFNTAQFWDGRAKDLAEQAKGPVQASVEMNNTPDQVVKTLNSIPDYVALFKKAFPGEKDPVTFDNMAKAIEVFEATLITPDSPFDQYLKGKKKALDGKQTAGLKLFLDKGCVACHGGLNLGGTGYFPFGVVEKPAENILPLGDKGRFAVTNTAKDEYVFRAPSLRNVAITYPYFHSGVVWSLKEAVAVMGSAQFGIKLSDDESEAIAAFLGSLTGKQPKVVYPIMPASTDATPRPRL,soluble
7,STLPRFDSVDLGNAPVPADAARRFEELAAKAGTGEAWETAEQIPVGTLFNEDVYKDMDWLDTYAGIPPFVHGPYATMYAFRPWTIRQFAGFSTAKESNAFYRRNLAAGQKGLSVAFDLPTHRGYDSDNPRVAGDVGMAGVAIDSIYDMRELFAGIPLDQMSVSMTMNGAVLPILALYVVTAEEQGVKPEQLAGTIQNDILKEFMVRNTYIYPPQPSMRIISEIFAYTSANMPKWNSISISGYHMQEAGATADIEMAYTLADGVDYIRAGESVGLNVDQFAPRLSFFWGIGMNFFMEVAKLRAARMLWAKLVHQFGPKNPKSMSLRTHSQTSGWSLTAQDVYNNVVRTCIEAMAATQGHTQSLHTNSLDEAIALPTDFSARIARNTQLFLQQESGTTRVIDPWSGSAYVEELTWDLARKAWGHIQEVEKVGGMAKAIEKGIPKMRIEEAAARTQARIDSGRQPLIGVNKYRLEHEPPLDVLKVDNSTVLAEQKAKLVKLRAERDPEKVKAALDKITWAAGNPDDKDPDRNLLKLCIDAGRAMATVGEMSDALEKVFGRYTAQIRTISGVYSKEVKNTPEVEEARELVEEFEQAEGRRPRILLAKMGQDGHDRGQKVIATAYADLGFDVDVGPLFQTPEETARQAVEADVHVVGVSSLAGGHLTLVPALRKELDKLGRPDILITVGGVIPEQDFDELRKDGAVEIYTPGTVIPESAISLVKKLRASLDA,soluble
8,MNGKPDLVITDSQVFKQVNAKLDRSVPLTSFSILMARYKGDLDKFYSGAKAIKNLKAGDKVLIAEACTHHQLKGDIAREKLPTWLEETCPGIIVHNCSGKDFPKNLNEYALVIHCGGCMFNKAEIMNRIGICDDALVPITNFGTSIAEINNILDRVMEPLKLEHHHHHH,not soluble
9,MQNNDFRTGSGSLKGSSTGVLKQFLFENVFICRIGVIKSFDFETQKGVVTIKEYEGLEISTCSISNFNFDLTAEDEVILLQSNFNIFQESDNNHFDKNYFYILSVLNPKKIGIRLDQFELSVQELGAQSENIKFKAKKLIIDVDNIEIKGNLKINGTKFENHMHSSGTLTYVNSSGVPTTTTGKTGPIA,soluble
10,MGSDKIHHHHHHMILDTAPHISSVGQVKEFFLARQPILDQNQNLIAYELLFRRAGVRAPVSAEDTRGAASIIAHTSELGIENVTGSALGFFNVNSTLLMGDLVNFLPAEKVVFEFPQTDKITPELVRRVAELAKAGYRFALDDVITLSEYIKPLLPFVEIIKIDTSVMTYADLAMLVRQFKQARKVLLADKVETLEQFQNCHELGFDYYQGYYFAKPALLSGKKLATSQLAIMELMTLVARDADTIEIEQRIKKEVSLCLSLLRLVNTPAMGVTKSIHSLSEALMVLGRRQLQRWLQIQIYVGPDPQIQFGSPLLLLAATRGKLLELVAQKLQPANRSMADIAFTVGILSLLDALFGQHMERILRQIVLSEEITEALLYRTGFYGDLLKLAEYLEKPGEAGRLLVPLLARLGLPIEELYPFQLEAFEWSNSLLPTL,not soluble
11,MGSDKIHHHHHHATTLLVSCSNQQTQTKAITVSDTTLLSAEEFSQKIKKEPNALILDVRTPEEFSEAHIANATNVNWKDNFASGITEVNKNQPVLVYCLSGGRSASASDYLRKNGYTQVYELQGGLLKWQASNFEVVADTVTAAQDSGMTLQQFEALLVTDKYVLIDFYATWCGPCKMMEPALEDIAATMSDKVIVVRIDVDKNEELSKHFEVESLPTVQIYKNKKLVWEDIGYKTKKQLVSQLK,not soluble
12,MGSDKIHHHHHHMVANPALPEGISDLPAGTLASVVTYLEMKTPPPIKGLETPPGLRLLRHDAPDVEWYCRLYRLVGEDYLWFSRLMWDYATLAAHLASDRVEVWSLQKQGVDLGLLELEWMQDGDCELSFFGLSKELIGAGVGRWLMEHATARAFSREISRFFVHTCTLDSPQALGFYMRSGFVPYGRAVEIAEDPRLTGLIPKTAAAHVPLIQR,not soluble
13,MGSDKIHHHHHHMAFLDVKGIRKTFPGVVALDGVDLEIELGAVHVLAGENGAGKSTLIRALTGLLPLDGGSIHIDGRDALTDRSAFDLVAYVPQELSLFPHMSVAENLFMPFAKAGFGGRVLPYAEMNRQAGAILERFSIKARPEQKVKSIAVSDQQLLQIARATTNKRLKVLILDEPTSSLTTQEIDRLFRILRQFRDNGTAIVFVSHKMEEIFELGTTVTVLRNGKTVGHRPMAAVSEPELIRLMSGDEVQLDQLFQPACAPGETIVTVDGLCGQGFHDISFALRRGEILGFAGLVGAGRSEVMQSMFGFKKPTGGTVLLKGRPLKLGKPSAAVEAGMLYLSEERRLHGILPVLSLRENIGISVLDQTSRGGVISTARERGVVGEVIASYDIKASSPEKKIMFLSGGNQQKAIIGRAMARKPDVLIFDEPTRGIDIRNKVEIYKIMKRLAEDGVAIILVSSEMAELKRCASRIITMYSGKLSGEFATATTDTHTLVGAIIGSAQSGQPPAGAPSPVADLETGARCHVL,not soluble
14,MSRKIPKEPTTRPAFNAYEKHVRDINNFVIPYQRENKYKKVVGETDLDVLKREYRFIRESEEEDAKSWETRLARRHYERLYKDYAIAELSQWREGSVGFRWLNQTEVLQGKGYSCCAATDCDSASELNTFEVPFTYEEDGETKATLVKVRLCRSCQVKMRESYRIAREKLK,soluble
15,MKRVFGILVCFMLLLSGTSVSFAQSEKTKQDKTEETTPKLAEQASSAIVIEQDTGKVLFDKNPNEKLPPASMTKIMTMLLIMEQVEKGKLKLTDKVRASEHAASMGGSQIFLEPGEEMTVNEMLKGIAIASGNDASVAVAEHIAGSEEGFVNMMNKKAKDLGLKNTHFQNPTGLPAKDHYSTANDMAIMAKELMKYPLIRKYTGKYEDYLREDTDKKFWLVNTNKLVRFYPGVDGVKTGFTTEAKYCLTASAEKNGMRVISVVMGAPTSKERNNQVTKLLDYAFGQYMTKKLYTRGEKIKTVQVGKGKKEKVDLVASDNVSLLMKKGENMDKVKQEVIAEKKVKAPIKKGDALGTLVIKKDKDVLLKQTIVAKEDVAAASWWELFKRSFGMFSTSK,not soluble
16,MGHHHHHHSHMGVAGTPGLPESPDKSPVGRKKSKGLATRLSRRRVSCRELGRPDCDGWLLLRKAPGGFMGPRWRRRWFVLKGHTLYWYRQPQDEKAEGLINVSNYSLESGHDQKKKYVFQLTHDVYKPFIFAADTLTDLSMWVRHLITCISKYQSP,soluble
17,QYSLLHVSDLFFLAQQAMPGVQVLDALTGKPVEGASVDASMRYSIDRSVHTLSPTDRYGRIDLPKSYNRFFPYTDGDRSYPVVSAYTYKQDQVDLSKKNERKYIVSTDRAIYRPGQKVHFFGQCDRIGYAVEDARAIGGSEVEVVLEDANSKEIGRLLCQADEMGRFSGSFDLPTGILNGLFGLRVGGDTYPFSVEEYKRPTFEVGLRSPDAAYAMGDTLRIRGEAKTFTGIGMRGATVNYRLSLTPYTRRWWGRPVADRVVQTGEAVVDES,not soluble
18,MGSDKIHHHHHHASCEKDPDMGKLDDNYLVYTNYDKQANFKDFSTFYLADKILVISDSKEPEYLEGEGAEQILAAYTENMEAKGYQPAADKESADLGIQVSYIASTYYFTGYTQPEWWWGYPGYWGPSYWGNWGGWYYPYAVTYSYSTNSFITEMVNLKADEGEGKKLPVVWTSYLTGFETGSKAINRTLAIEAVNQSFTQSPYLTNK,not soluble
19,IDKIENYEQSTSQLREEIKTLYNEVIDIGKKLSQERRRVARELRDHIVSEIQNLQMKDANLEISFKPLDEPTIEGIEFVEFLISPNRGEPLKSLNKIASGGELSRIMLALKSIFVKSRGQTAILFDEVDSGVSGQAAQKMAEKMRDIAQYIQVICISHLPQVASMSDHHLLISKASNADRTTTQVKELKDENKIDEIARMISGASVTELTRENAKEMIKQNHNI,not soluble
20,MSLKPSVVLNGDAITLGDIWENIGDKAGTPLANAPAPGKRITLETRWLMAVAQSYGIDWRPASPFERSVVERAGQSVDIRAIETELKEALSMEGAPAGASIEISNRQQLHIVIPATASPTVAVKDLAYDPRMNRFQAVVEAPAGAPNSVRFKVMGSVYASARIPVLAHAMGRGDVIREDDIQWVDVREEVVRRDIISNARMLVGQEPRYQLRAGVPVRTNEVQKPVVVAKNSSVTIMLRSKFMTLTAQGRAIEDGSVGDVIRVTNVQSKQTVDAKIEGPGQVSVMPGGLRTLANEGHHHHHH,not soluble
21,MGSDKIHHHHHHMIDEIKSGKYKHGDKLPTEKELMERFNASRETVRKALERLVVKNLVIRKPGLGTFVNIEKKNKVVGILVQQITSYIFPYIALGAEEVLFANGYKMLLGNASEDPHKERQIINEWLEVGVDGLIIDPVYSATKRSNRDLIEDMAKKGTKVVLVHTNWDIEGVGSVVLDDWYGGEKAAEIFYQYGHRNVAVLYKTIHLPSVVRAQAFLKRGRELGFEKVHEKSFHVSEFTGIVMQSAFELLSLPKDQRPTAVFCYNDATALQFFLAAKRMGLKIPEDVSVIGFDDAPIGDFREILTTFEHPKEEVGKKAVEILLKMIDGEKPEKYVFKPKLIMRESVTYPKK,not soluble
22,NGQIMYRIVTVQDSTERLESQSALRESEERFRSVVESAPDAIFIQTGGRFAYLNHSAIALFGASKAEEILGRRVADQIHPDYRDLVAERIRLLNERQ,not soluble
